Experimental data: patent US20200109398

System: R4Al (R4_AL) retrotransposase (Ascaris lumbricoides)
Test: cell_activity
Settings: ddPCR 3' junction, HEK293T, plasmid cis

## human rDNA R4 target site
  activity (copies/genome): 0.085
